What was measured:
[1] = target: T1, zinc finger protein 202, alt. transcript beta (ZNF202b), bait fragment amino acids 1-199 (human, UniProt P04386 1-147; O95125 1-199); assay: yeast two-hybrid; prey fragment isolated with ZNF202b bait 1-199
T1 construct: also called ZNF202beta; ZNF202 m1
Text: (§1) In these yeast cells, the bait was produced as a C-terminal fusion protein with the DNA binding domain of the transcription factor Gal4 (amino acids 1 to 147). Prey libraries were transformed into the yeast strain BK100 (genotype of this strain: MATa trp1-901 leu2-3,112 ura3-52 his3-200 gal4Δ gal80 LYS2::GAL-HIS3 GAL2-ADE2 met2::GAL7-lacZ), and selected for the ability to drive leucine synthesis. In these yeast cells, each cDNA was expressed as a fusion protein with the transcription activation domain of the transcription factor Gal4 (amino acids 768 to 881) and a 9 amino acid hemagglutinin epitope tag. PNY200 cells (MATα mating type), expressing the bait, were then mated with BK100 cells (MATa mating type), expressing prey proteins from a prey library. The resulting diploid yeast cells expressing proteins interacting with the bait protein were selected for the ability to synthesize tryptophan, leucine, histidine, and adenine. DNA was prepared from each clone, transformed by electroporation into *E. coli* strain KC8 (Clontech KC8 electrocompetent cells, Catalog No. C2023-1), and the cells were selected on ampicillin-containing plates in the absence of either tryptophane (selection for the bait plasmid) or leucine (selection for the library plasmid). DNA for both plasmids was prepared and sequenced by the dideoxynucleotide chain termination method. […]

[2] = target: T2, zinc finger protein 202, alt. transcript beta (ZNF202b), bait fragment amino acids 1-224 (human, UniProt P04386 1-147; O95125 1-224); assay: yeast two-hybrid; prey fragment isolated with ZNF202b bait 1-224
T2 construct: also called ZNF202beta; ZNF202 m1
Text: as §1

[3] = target: T3, novel protein PN1851, fragment residues 14-369 (human, UniProt P04386 768-881 (Saccharomyces cerevisiae entry)); assay: yeast two-hybrid search, bait ZNF202 33-118
T3 construct: range 768-881
Text: The new construct was selected directly in the yeast strain PNY200 for its ability to drive tryptophane synthesis (genotype of this strain: MATα trp1-901 leu2-3, 112 ura3-52 his3-200 ade2 gal4Δ gal80). In these yeast cells, the bait was produced as a C-terminal fusion protein with the DNA binding domain of the transcription factor Gal4 (amino acids 1 to 147). Prey libraries were transformed into the yeast strain BK100 (genotype of this strain: MATa trp1-901 leu2-3,112 ura3-52 his3-200 gal4Δ gal80 LYS2::GAL-HIS3 GAL2-ADE2 met2::GAL7-lacZ), and selected for the ability to drive leucine synthesis. In these yeast cells, each cDNA was expressed as a fusion protein with the transcription activation domain of the transcription factor Gal4 (amino acids 768 to 881) and a 9 amino acid hemagglutinin epitope tag. PNY200 cells (MATα mating type), expressing the bait, were then mated with BK100 cells (MATa mating type), expressing prey proteins from a prey library. The resulting diploid yeast cells expressing proteins interacting with the bait protein were selected for the ability to synthesize tryptophan, leucine, histidine, and adenine. […]

binding result [3]	Binder	binding result [1]	binding result [2]
	novel protein PN7745, prey fragment amino acids 2-171 (other, not shown: small tags and cut ends, range 768-881; Yeast two-hybrid prey) ANFNQSGNIADSSLSFTFTNSSNGPNLITTQTNSQALSQPIASSNVHDNFMNNEITASKIDDGNNSKPLSPGWTDQTAYNAFGITTGMFNTTTMDDVYNYLFDDEDTPPNPKKEQAVVPLNKMTAISPEPQTLASTEQNEVPRVVTSGEQEAILRGNAADAESFRQRFRWFCYSEVAGPRKALSQLWELCNQWLRPDIHTKEQILELLVFEQFLTILPGEIRIWVKSQHPESSEEVVTLIEDLTQILEEKDPVSEDSTVSQEENSKEDKMVTVCPNTESCESAL	binds	binds
	novel protein PN7745, prey fragment amino acids 2-156 (other, not shown: small tags and cut ends, range 768-881; Yeast two-hybrid prey) ANFNQSGNIADSSLSFTFTNSSNGPNLITTQTNSQALSQPIASSNVHDNFMNNEITASKIDDGNNSKPLSPGWTDQTAYNAFGITTGMFNTTTMDDVYNYLFDDEDTPPNPKKEQAVVPLNKMTAISPEPQTLASTEQNEVPRVVTSGEQEAILRGNAADAESFRQRFRWFCYSEVAGPRKALSQLWELCNQWLRPDIHTKEQILELLVFEQFLTILPGEIRIWVKSQHPESSEEVVTLIEDLTQILEEKDPVSEDSTVSQEENSKEDK		binds
binds	zinc finger protein 202, alt. transcript beta (ZNF202b), bait fragment amino acids 33-118 (other, UniProt P04386 1-147, looked up, also called ZNF202beta; ZNF202 m1) MKLLSSIEQACDICRLKKLKCSKEKPKCAKCLKNNWECRYSPKTKRSPLTRAHLTEVESRLERLEQLFLLIFPREDLDMILKMDSLQDIKALLTGLFVQDNVNKDAVTDRLASVETDMPLTLRQHRISATSSSEESSNKGQRQLTVSSVLQRDDPVLETSHQNFRRFRYQEAASPREALIRLRELCHQWLRPERRTKEQILELLVLEQFLTVLPGELQSWVRGQRPESGEEAV		
	novel protein PN7745, prey fragment amino acids 44-171 (other, not shown: small tags and cut ends, range 768-881; Yeast two-hybrid prey) ANFNQSGNIADSSLSFTFTNSSNGPNLITTQTNSQALSQPIASSNVHDNFMNNEITASKIDDGNNSKPLSPGWTDQTAYNAFGITTGMFNTTTMDDVYNYLFDDEDTPPNPKKENAADAESFRQRFRWFCYSEVAGPRKALSQLWELCNQWLRPDIHTKEQILELLVFEQFLTILPGEIRIWVKSQHPESSEEVVTLIEDLTQILEEKDPVSEDSTVSQEENSKEDKMVTVCPNTESCESAL	binds	

Reference: US7297515 (MYRIAD GENETICS, dated 2007)
